Measurements published in patent publication US8796201B2 (The Board of Trustees of the Leland Stanford Junior …, priority 2002, dated 2014).

B1: FM PEP: recombinant prolyl endopeptidase from Flavobacterium meningosepticum (Genbank D10980) (protein)
chain: QNSNVLKYPETKKVSHTDTYFGTQVSDPYRWLEDDRAEDTKAWVQQEVKFTQDYLAQIPFRDQLKKQLMDIWNYEKISAPFKKGKYTYFSKNDGLQAQSVLYRKDAAGKTEVFLDPNKFSEKGTTSLASVSFNKKGTLVAYSISEGGSDWNKIIILDAETKKQLDETLLDVKFSGISWLGDEGFFYSSYDKPKEGSVLSGMTDKHKVYFHKLGTKQSQDELIIGGDKFPRRYIGAYVTDDQRYLVVSAANATNGNELYIKDLKNKTDFIPIITGFDSNVNVADTDGDTLYLFTDKDAPNKRLVKTTIQNPKAETWKDVIAETSEPLEINTGGGYFFATYMKDAIDQVKQYDKNGKLVRAIKLPGSGNASGFGGEKTEKDLYYSFTNYITPPTIFKYNVTTGNSEVYQKPKVKFNPENYVSEQVFYTSSDGTKIPMMISYKKGLKKDGKNPTILYSYGGFNISLQPAFSVVNAIWMENGGIYAVPNIRGGGEYGKKWHDAGTKMQKKNVFNDFIAAGEYLQKNGYTSKEYMALSGRSNGGLLVGATMTMRPDLAKVAFPGVGVLDMLRYNKFTAGAGWAYDYGTAEDSKEMFEYLKSYSPVHNVKAGTCYPSTMVITSDHDDRVVPAHSFKFGSELQAKQSCKNPILIRIETNAGHGAGRSTEQVVAENADLLSFALYEMGIKSLK
B2: MX PEP: novel recombinant prolyl endopeptidase from Myxococcus xanthus (Genbank AF127082, SEQ ID NO:47) (protein, listed as Myxococcus xanthus)
chain: MSYPATRAEQVVDTLHGVQVADPYRWLEDEKAPEVQTWMTAQNAHAREALAKFPGREALAARFKELFYTDSVSTPSRRNGRFFYVRTHKDKEKAILYWRQGESGQEKVLLDPNGWSKDGTVSLGTWAVSWDGKKVAFAQKPNAADEAVLHVIDVDSGEWSKVDVIEGGKYATPKWTPDSKGFYYEWLPTDPSIKVDERPGYTTIRYHTLGTEPSKDTVVHERTGDPTTFLQSDLSRDGKYLFVYILRGWSENDVYWKRPGEKDFRLLVKGVGAKYEVHAWKDRFYVLTDEGAPRQRVFEVDPAKPARASWKEIVPEDSSASLLSVSIVGGHLSLEYLKDATSEVRVATLKGKPVRTVQLPGVGAASNLMGLEDLDDAYYVFTSFTTPRQIYKTSVSTGKSELWAKVDVPMNPEQYQVEQVFYASKDGTKVPMFVVHRKDLKRDGNAPTLLYGYGGFNVNMEANFRSSILPWLDAGGVYAVANLRGGGEYGKAWHDAGRLDKKQNVFDDFHAAAEYLVQQKYTQPKRLAIYGGSNGGLLVGAAMTQRPELYGAVVCAVPLLDMVRYHLFGSGRTWIPEYGTAEKPEDFKTLHAYSPYHHVRPDVRYPALLMMAADHDDRVDPMHARKFVAAVQNSPGNPATALLRIEANAGHGGADQVAKAIESSVDLYSFLFQVLDVQGAQGGVAAQGR

Experiments:
[1] = system: LQLQPFPQPQLPYPQPQLPYPQPQLPYPQPQPF (33-mer); assay: Hydrolysis of the 33-mer gliadin peptide by PEPs, HPLC; format: biochemical, wheat; settings: for rate of substrate (33-mer+32-mer) disappearance: 10 μM substrate; for initial hydrolytic products of the 33-mer: LC/MS/MS
Procedure: FIGS. 11A-11C. Hydrolysis of (SEQ ID NO:12) […] by FM PEP, MX PEP and SC PEP. (A) Time dependence of hydrolysis in the presence of 10 μM substrate and 0.1 μM enzyme. […] (B) Initial cleavage fragments observed due to hydrolysis by FM PEP (t=1 min) and MX PEP (t=5 min). (C) Summary of initial cleavage fragments from FM PEP and MX PEP catalyzed hydrolysis of the 33-mer substrate.
Substrate Specificity. In addition to the reference substrates above, enzyme specificity was also evaluated using two immunogenic peptides derived from the sequence of γ-gliadin proteins in gluten. Both peptides were synthesized using solid-phase peptide synthesis. The peptide (SEQ ID NO:4) […] contains the immunodominant γII-epitope, and is resistant to proteolysis by pepsin or any pancreatic enzyme. PEP specificity toward this substrate was assessed in a competitive assay in which 100 μM (SEQ ID NO:4) […] and 100 μM Suc-Ala-Pro-pNA were mixed and reacted with 0.02 μM PEP at 25° C. The initial velocity of Suc-Ala-Pro-pNA cleavage was measured spectrophotometrically, whereas the initial velocity of (SEQ ID NO:4) […] hydrolysis was determined via HPLC. The apparent specificity, kcat/KM, for the hydrolysis of (SEQ ID NO:4) […] could be determined based on the known kcat/KM of the enzyme for Suc-Ala-Pro-pNA and the observed reaction rates of the two substrates. […] Proteolysis reactions were performed at 37° C. in PBS buffer with 5-100 μM peptide and 0.1 μM PEP for time periods of 1 min-4 hrs.
The decrease in substrate concentration as well as concomitant intermediate and product build-up were monitored with HPLC analysis. RP-HPLC was performed on a system consisting of Beckman or Rainin Dynamax SD-200, a Varian 340 UV detector set at 215 nm and 280 nm. Solvent A was H2O with 0.1% TFA and solvent B was acetonitrile with 0.1% TFA; gradient used: 0-5% B in 0-15 min, 5-30% B in 15-30′, 30-100% B in 30-35 min, 100% B for 5′; flow 1 ml/min; separation was performed on a 4.6×150 mm reverse phase C-18 column (Vydac, Hesperia, Calif., USA). Samples were centrifuged for 10 min at 13,400 g, prior to injection of 10-100 μl. […] Thus, multiple peptides accumulate during the course of the reaction, some of which are secondary PEP substrates in themselves.
Chain Length Tolerance and Selectivity. […] Thus, the SC PEP appears to have a severe chain length restriction for long peptide substrates.

[2] = system: pepsin; assay: Gastric protease stability; format: in vitro ADME; settings: 1 mg/ml pepsin, pH 2
Procedure: FIG. 9. Resistance of the FM PEP and the MX PEP to inactivation by gastric and pancreatic enzymes. Pancreatic enzyme stability was evaluated by treating 5 U/ml of the FM PEP and the MX PEP with 1 mg/ml trypsin, 1 mg/ml chymotrypsin, 0.2 mg/ml elastase and 0.2 mg/ml carboxypeptidase A (40 mM phosphate, pH=6.5). Pepsin stability was tested by treating the FM PEP and the MX PEP (5 U/ml) with 1 mg/ml pepsin (pH=2, 20 mM HCl).
Gastric and Pancreatic Protease Stability. […] Absorption was measured at 410 nm for 1 to 2 min every 10 s to assay residual activity. […] Enzyme activities are expressed as a percentage of the maximum activity, typically observed at the zero time point.
PEP Stability. […] We therefore evaluated the extent to which the activity of each PEP remains intact after 10 min of incubation at selected pH values between 1.6 and 3.9. […] Since therapeutic efficacy would require a PEP to act upon gluten in conjunction with pancreatic proteases that are secreted into the duodenum, the resistance of FM PEP and MX PEP toward both gastric and pancreatic enzymes was evaluated. For this we pre-incubated the enzymes with physiological quantities of either pepsin (at pH 2) or a cocktail comprising of trypsin, chymotrypsin, elastase and carboxypeptidase A (at pH 6.5).

| Molecule | time to hydrolyze 10 μM of the 33-mer ([1]; 0.1 μM enzyme) [min] | rate of substrate (33-mer+32-mer) disappearance ([1]; 0.1 μM enzyme) [µM/min] | initial hydrolytic products of the 33-mer [1] | faster action on the 33-mer than the MX PEP ([1]; based on initial rates) [fold] | faster action on the 33-mer than the SC PEP ([1]; based on initial rates) [fold] | resistance to pepsin [2] |
| --- | --- | --- | --- | --- | --- | --- |
| B1 | 2 to 3 | 2.3 | yielded longer intermediates | 5 | > 20 | highly susceptible to pepsin catalyzed proteolysis |
| B2 |  | 0.43 | fragments mostly of 4-5 residues |  |  | highly susceptible to pepsin catalyzed proteolysis |
